Several values for one entry are separate records, joined by “and”; a condition that tells them apart may be missing. Equal entries are not always repeated.

For three molecules, EC50 and Ka results are on record in patent US20220204602A1 (published 2022).

For assay [1], the target named is T1, human complement C5 (human, UniProt P01031 19-673; P01031 678-1676). As to the kind of experiment: competition ELISA; pH 7.4. For orientation: ELISA stands for enzyme-linked immunosorbent assay.
For assay [2], the target named is T1, human complement C5. As to the kind of experiment: competition ELISA; pH 6.0.
The next assay deals with T2, Cyno FcRn (Cynomolgus, UniProt Q8SPV9 24-297; Q8SPW0 21-119).
T2 chain 1: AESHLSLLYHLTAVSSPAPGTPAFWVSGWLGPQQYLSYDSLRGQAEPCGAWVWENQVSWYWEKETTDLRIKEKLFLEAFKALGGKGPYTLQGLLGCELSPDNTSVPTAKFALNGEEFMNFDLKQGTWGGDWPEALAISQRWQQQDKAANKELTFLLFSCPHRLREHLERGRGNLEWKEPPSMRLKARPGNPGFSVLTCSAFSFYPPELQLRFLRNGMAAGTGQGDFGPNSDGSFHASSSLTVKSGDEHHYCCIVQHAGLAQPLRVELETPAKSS
T2 chain 2: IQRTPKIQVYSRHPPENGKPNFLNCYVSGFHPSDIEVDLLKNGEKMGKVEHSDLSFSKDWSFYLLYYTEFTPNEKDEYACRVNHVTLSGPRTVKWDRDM
Put plainly: SPR (Biacore); pH 6.0.

B1: parental mAb H1-8/L1-9 ScFV (scFv)
chain: MDWTWVFLFLLSVTAGVHSQVQLVQSGAEVKKPGASVKVSCKASGYTITDYHLDWVRQAPGQGLEWMGDISPNYGYTIYNQKFKDRVTMTTDTSTSTAYMELRSLRSDDTAVYYCARRDIRYSGNSYKWYFDVWGQGTMVTVSSMEAPAQLLFLLLLWLPDTTGDIQLTQSPSFLSASVGDRVTITCRTSKSISKHLAWYQQKPGKAPKLLIYSGSTLQSGVPSRFSGSGSGTEFTLTISSLQPEDFATYYCQQHNEYPYTFGQGTKLEIK
For orientation: EC50 means the concentration giving half of the maximal effect. As for B1, in the assay with human complement C5 [1], the EC50 was 2.08 µg/mL and 1.62 µg/mL and 2.33 µg/mL.

B2: scFV mutant clone 14C6 from mAb 1819 affinity maturation (T to H mutation in position 9 of VH CDR2) (scFv)
chain: B1 chain
In the case of B2, the EC50 came to 4.97 µg/mL with human complement C5 [2] and 0.404 µg/mL with human complement C5 [1].

B3: anti-C5 mAb FMEH-IgG4PLA (antibody)
heavy: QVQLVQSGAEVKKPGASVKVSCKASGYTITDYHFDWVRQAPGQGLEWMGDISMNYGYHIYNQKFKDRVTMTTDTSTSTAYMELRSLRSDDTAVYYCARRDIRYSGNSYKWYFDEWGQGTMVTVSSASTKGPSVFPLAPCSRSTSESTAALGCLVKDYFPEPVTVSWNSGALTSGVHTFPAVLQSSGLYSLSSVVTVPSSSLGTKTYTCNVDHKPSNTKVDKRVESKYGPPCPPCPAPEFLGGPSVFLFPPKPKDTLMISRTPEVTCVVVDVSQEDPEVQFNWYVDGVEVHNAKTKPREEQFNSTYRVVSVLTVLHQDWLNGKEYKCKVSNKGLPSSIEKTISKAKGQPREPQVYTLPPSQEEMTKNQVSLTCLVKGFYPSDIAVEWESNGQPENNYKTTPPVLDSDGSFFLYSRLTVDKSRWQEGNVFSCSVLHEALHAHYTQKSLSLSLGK
light: DIQLTQSPSFLSASVGDRVTITCRTSKSISKHLAWYQQKPGKAPKLLIYSGSTLQSGVPSRFSGSGSGTEFTLTISSLQPEDFATYYCQQHNEYPYTFGQGTKLEIK
B3 yielded a Ka in the assay with Cyno FcRn of 7.13e+07 M⁻¹.
